What was measured:
PilQ352-761 = molecular target: T1, PilQ352-761 (Neisseria meningitidis M1080, UniProt Q9JVW4 352-761); assay: EMSA; 5 mM Mg2+; EMSA: 50 mM MOPS pH 7.5, 1 mM EDTA, 1 mM DTT, 5 mM MgCl2, 5% glycerol, 200 ng protein in 10 ul, 20 min room temperature; 6% PAGE; details: protein: recombinant, tags: His (C-terminal with pET28b), label: 5' 32P
T1 sequence: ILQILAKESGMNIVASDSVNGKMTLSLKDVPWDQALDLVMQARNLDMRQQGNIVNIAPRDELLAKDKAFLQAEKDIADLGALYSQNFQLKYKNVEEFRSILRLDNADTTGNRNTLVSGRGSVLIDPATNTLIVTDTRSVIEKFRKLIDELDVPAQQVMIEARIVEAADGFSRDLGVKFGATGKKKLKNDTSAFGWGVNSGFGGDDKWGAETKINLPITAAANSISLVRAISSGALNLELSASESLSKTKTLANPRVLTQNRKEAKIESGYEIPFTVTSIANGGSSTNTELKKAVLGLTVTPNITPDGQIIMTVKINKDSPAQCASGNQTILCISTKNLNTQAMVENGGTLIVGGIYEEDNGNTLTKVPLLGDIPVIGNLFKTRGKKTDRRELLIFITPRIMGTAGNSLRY

PilQ25-354 = molecular target: T2, PilQ25-354 (Neisseria meningitidis M1080, UniProt Q9JVW4 25-354); assay: as above; details: protein: recombinant, tags: His (N-terminal with pQE30), label: 5' 32P
T2 sequence: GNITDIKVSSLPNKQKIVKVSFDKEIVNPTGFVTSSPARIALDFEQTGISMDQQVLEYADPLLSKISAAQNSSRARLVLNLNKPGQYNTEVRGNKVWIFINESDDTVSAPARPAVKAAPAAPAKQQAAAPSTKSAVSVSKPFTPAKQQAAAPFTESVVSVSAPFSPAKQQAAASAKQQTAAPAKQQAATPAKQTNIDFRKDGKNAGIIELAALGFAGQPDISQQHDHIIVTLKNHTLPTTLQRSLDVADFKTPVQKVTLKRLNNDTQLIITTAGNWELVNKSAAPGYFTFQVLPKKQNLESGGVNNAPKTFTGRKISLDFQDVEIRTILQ

PilQ218-478 = molecular target: T3, PilQ218-478 (Neisseria meningitidis M1080, UniProt Q9JVW4 218-478); assay: as above; details: protein: recombinant, tags: His (N-terminal with pQE30), label: 5' 32P
T3 sequence: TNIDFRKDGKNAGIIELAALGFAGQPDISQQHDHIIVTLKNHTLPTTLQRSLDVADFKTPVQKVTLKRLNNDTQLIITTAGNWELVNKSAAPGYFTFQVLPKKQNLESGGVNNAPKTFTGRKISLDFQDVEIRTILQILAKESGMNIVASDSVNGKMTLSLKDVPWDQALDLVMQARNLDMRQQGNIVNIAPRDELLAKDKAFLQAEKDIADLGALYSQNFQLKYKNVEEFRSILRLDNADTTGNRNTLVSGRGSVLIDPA

PilQ25-132 = molecular target: T4, PilQ25-132 (Neisseria meningitidis M1080, UniProt Q9JVW4 25-132); assay: as above; details: protein: recombinant, tags: His, label: 5' 32P
T4 sequence: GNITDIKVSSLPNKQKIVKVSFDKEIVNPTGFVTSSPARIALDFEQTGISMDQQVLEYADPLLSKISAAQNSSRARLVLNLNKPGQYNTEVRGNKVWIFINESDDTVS

[1] = molecular target: T5, PilQ complex (native secretin) (Neisseria meningitidis M1080, UniProt Q9JVW4 25-761); assay: Southwestern; whole-cell lysate, PilQ multimer band; EMSA: 50 mM MOPS pH 7.5, 1 mM EDTA, 1 mM DTT, 5 mM MgCl2, 5% glycerol, 200 ng protein in 10 ul, 20 min room temperature; 6% PAGE; details: chain copies: 12, label: 5' 32P, ss, 1 strand
T5 sequence: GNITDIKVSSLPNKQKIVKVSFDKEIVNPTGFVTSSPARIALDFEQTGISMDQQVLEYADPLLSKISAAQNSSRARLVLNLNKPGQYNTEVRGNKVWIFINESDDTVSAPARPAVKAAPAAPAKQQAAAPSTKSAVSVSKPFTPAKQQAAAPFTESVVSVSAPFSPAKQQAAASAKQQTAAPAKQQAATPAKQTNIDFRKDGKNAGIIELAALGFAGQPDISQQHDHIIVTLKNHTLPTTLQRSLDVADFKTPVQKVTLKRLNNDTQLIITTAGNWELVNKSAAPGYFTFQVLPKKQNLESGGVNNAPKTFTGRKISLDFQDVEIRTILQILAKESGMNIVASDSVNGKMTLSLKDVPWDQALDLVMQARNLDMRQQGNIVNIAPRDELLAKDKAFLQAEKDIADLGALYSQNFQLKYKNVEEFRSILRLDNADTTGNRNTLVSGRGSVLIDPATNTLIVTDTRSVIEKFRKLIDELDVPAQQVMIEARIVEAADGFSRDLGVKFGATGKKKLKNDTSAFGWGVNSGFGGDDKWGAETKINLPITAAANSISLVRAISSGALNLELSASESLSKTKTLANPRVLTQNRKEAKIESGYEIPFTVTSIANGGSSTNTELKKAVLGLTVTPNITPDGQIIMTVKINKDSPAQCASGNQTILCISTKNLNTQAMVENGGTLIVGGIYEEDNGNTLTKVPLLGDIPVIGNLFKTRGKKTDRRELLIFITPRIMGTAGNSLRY

B1: T3 (ssDNA)
DNA: CAACAACAACAACAGGCCTGTCATCCAAAATGACAGGCCAACAACAACAACA
B1: no binding (PilQ352-761; ss, 1 strand); binds (PilQ25-354; ss, 1 strand); no binding (PilQ218-478; ss, 1 strand). B1: no binding (PilQ25-132; ss, 1 strand).

B2: T4 (ssDNA)
DNA: TGTTGTTGTTGTTGGCCTGTCATTTTGGATGACAGGCCTGTTGTTGTTGTTG
B2: no binding (PilQ352-761; ss, 1 strand); binds (PilQ25-354; ss, 1 strand); no binding (PilQ218-478; ss, 1 strand). B2: no binding (PilQ25-132; ss, 1 strand).

CCGCCGCCTGCCGTCTGAAAGATATTCAGACGGCATCGGC (ssDNA) [T7]: no binding (PilQ352-761; ss, 1 strand); binds (PilQ25-354; ss, 1 strand); no binding (PilQ25-132; ss, 1 strand).

B3: T3+T4 hybrid (dsDNA)
DNA 1: B1 DNA
DNA 2: B2 DNA
B3: no binding (PilQ352-761; blunt); binds (PilQ25-354; blunt); binds (PilQ25-132; blunt).

B4: T1 (ssDNA)
DNA: CAACAACAACAACAGCCGTCTGAACCAAATTCAGACGGCAACAACAACAACA
B4: no binding (PilQ352-761; ss, 1 strand); binds (PilQ25-354; ss, 1 strand); no binding (PilQ218-478; ss, 1 strand). B4: no binding (PilQ25-132; ss, 1 strand); binds [1].

B5: T2 (ssDNA)
DNA: TGTTGTTGTTGTTGCCGTCTGAATTTGGTTCAGACGGCTGTTGTTGTTGTTG
B5: no binding (PilQ352-761; ss, 1 strand); binds (PilQ25-354; ss, 1 strand); no binding (PilQ25-132; ss, 1 strand).

GCCGATGCCGTCTGAATATCTTTCAGACGGCAGGCGGCGG (ssDNA) [T8]: no binding (PilQ352-761; ss, 1 strand); binds (PilQ25-354; ss, 1 strand); no binding (PilQ218-478; ss, 1 strand).

B6: T1+T2 hybrid (dsDNA)
DNA 1: B4 DNA
DNA 2: B5 DNA
B6: no binding (PilQ352-761; blunt); binds (PilQ25-354; blunt); no binding (PilQ218-478; blunt).

B7: T7+T8 hybrid (dsDNA)
DNA 1: CCGCCGCCTGCCGTCTGAAAGATATTCAGACGGCATCGGC
DNA 2: GCCGATGCCGTCTGAATATCTTTCAGACGGCAGGCGGCGG
B7: no binding (PilQ352-761; blunt); binds (PilQ25-354; blunt).

Reference: paper PMC2884949, “The outer membrane secretin PilQ from Neisseria meningitidis binds DNA”
